# In patent US20220395548A1:
# Experiments:
# [1] = target: gp120 of HIV-1NL4-3 (on virus particles) (HIV-1 (NL4-3)); test: immunoblot with 2G12, band value, 4th column: Day 5, + MoMo30 by the order of the lanes above
# [2] = target: gp120 of HIV-1NL4-3 (on virus particles) (HIV-1 (NL4-3)); test: immunoblot with 2G12, band value, 1st column: Day 5, - MoMo30 by the order of the lanes above
# [3] = target: gp120 of HIV-1NL4-3 (on virus particles) (HIV-1 (NL4-3)); test: immunoblot with 2G12, band value, 6th column: Day 12, + MoMo30 by the order of the lanes above
# [4] = target: gp120 of HIV-1NL4-3 (on virus particles) (HIV-1 (NL4-3)); test: immunoblot with 2G12, band value, 5th column: Day 8, + MoMo30 by the order of the lanes above
# [5] = target: gp120 of HIV-1NL4-3 (on virus particles) (HIV-1 (NL4-3)); test: immunoblot with 2G12, band value, 3rd column: Day 12, - MoMo30 by the order of the lanes above
# [6] = target: gp120 of HIV-1NL4-3 (on virus particles) (HIV-1 (NL4-3)); test: immunoblot with 2G12, band value, 2nd column: Day 8, - MoMo30 by the order of the lanes above
substance,measurement,setting,value
monoclonal antibody 2G12 (AIDS reagent program; cat #1476),gp120 (row of the table under the blot),[1],87
same,gp120 (row of the table under the blot),[2],65
same,gp120 (row of the table under the blot),[3],16
same,gp120 (row of the table under the blot),[4],51
same,gp120 (row of the table under the blot),[5],100
same,gp120 (row of the table under the blot),[6],51
